In US9822156B2, “Amyloid beta expression constructs and uses therefor” (Whitehead Institute for Biomedical Research, priority 2014, dated 2017):

Assays:
293T cells = test: TOXILIGHT cytotoxicity assay in stable doxycycline-inducible poly-Aβ 293T cell lines; type: cell-based; conditions: 72-96 hours following doxycycline induction
Description: Similar to the poly-Aβ (Aβ40 or Aβ42_1X/4X/6X/8X) expression constructs in yeast (see Example 1), a poly-Aβ toxicity model was developed in mammalian cells. Stable cell lines with chromosomally-integrated tetracycline (doxycycline)-inducible […] transgenes (Aβ42-4X, Aβ42-6X, Aβ40-4X, Aβ40-6X and Aβ42-Arctic-4X) linked to an N-terminal insulin signal peptide were generated (FIGS. 13A-13B). These expression constructs were generated using the pLix402 lentiviral plasmid (FIG. 12). The poly-Aβ constructs were individually transfected into 293T cells along with the lentiviral packaging plasmid psPAX and the viral envelope-expressing plasmid mMD2.G using LIPOFECTAMINE® 2000 (Invitrogen) transfection reagent to generate lentivirus containing the poly-Aβ transgene. The virus was harvested from the supernatant of transfected 293T cells 2 and 3 days post-transfection and subsequently purified and concentrated using the LENTI-X™ Maxi Purification kit (Clontech) according to the manufacturer's instructions.
To generate stable cells harboring the expression transgene for the poly-Aβ constructs, 293T cells were infected using POLYBRENE® infection reagent (Sigma Aldrich), which is used to introduce retroviral vectors into mammalian cells. Infected cells were then selected using puromycin (2-10 μg/ml). Infected cells harboring the transgene survive this selection pressure whereas the control cells without the transgene die in 2-3 days. Aliquots of the selected cells were frozen in liquid nitrogen or maintained and propagated for further applications.
Expression of Aβ peptide from these stable cell lines was measured in the culture supernatant 72-96 hours following doxycycline induction (FIG. 13D). Toxicity was measured 72-96 hours following doxycycline induction using a TOXILIGHT™ cytotoxicity assay (Lonza) as described in Example 2.

[1] = system: Rat embryonic cortical neurons; test: […] ATP viability assay in neurons infected with lentiviral poly-Aβ constructs; type: cell-based; conditions: three weeks post doxycycline-induction (2 μg/ml)
Description: Rat embryonic cortical neurons were infected with lentiviral poly-Aβ expression constructs to model poly-Aβ toxicity. Tetracycline (doxycycline)-inducible poly-Aβ (Aβ42-4X, Aβ42-6X, Aβ40-4X, Aβ40-6X, and Aβ42-Arctic-4X) viral constructs described in Example 5 were used to express poly-Aβ constructs in rat cortical neurons. In each expression construct, the poly-Aβ coding sequence is linked to an N-terminal insulin signal peptide. The poly-Aβ expression plasmids were packaged in lentiviral particles, which were generated by 293T cells as described in Example 3.
Rat cortical neurons were enriched from cortices dissected out of embryonic (E18) rat brains and enriched in adherent monolayer culture as described in Example 3. Purified lentiviral preparations at different MOI were used to infect these cortical neurons to express poly-Aβ transgenes. Three days post-infection, expression of poly-Aβ was induced by adding doxycycline (2 μg/ml) to the infected cultures.

Molecule	Aβ peptide-mediated cytotoxic effect (adenylate kinase release), rank order (293T cells)	cytotoxicity (viability by ATP levels) [1]
Aβ42-4X: doxycycline-inducible construct, insulin signal peptide and four copies of Aβ42, SEQ ID NO:35	Aβ42-6X≧Aβ42-Arctic-4X≧Aβ42-4X≧AB40-6X≧Aβ40-4X	profound cytotoxicity compared to Aβ40-4X
Aβ42-Arctic-4X: doxycycline-inducible construct, insulin signal peptide and four copies of Aβ42 E22G, SEQ ID NO:37 (protein) MALWMRLLPLLALLALWGPDPAAADAEFRHDSGYEVHHQKLVFFAGDVGSNKGAIIGLMVGGVVIARRDAEFRHDSGYEVHHQKLVFFAGDVGSNKGAIIGLMVGGVVIAKRDAEFRHDSGYEVHHQKLVFFAGDVGSNKGAIIGLMVGGVVIARRDAEFRHDSGYEVHHQKLVFFAGDVGSNKGAIIGLMVGGVVIA	Aβ42-6X≧Aβ42-Arctic-4X≧Aβ42-4X≧AB40-6X≧Aβ40-4X	profound cytotoxicity compared to Aβ40-4X
